The values that follow come from the RNAGym collection of RNA variant scans (doi:10.7554/elife.80360).

B1: HDV Ribozyme (parent)
chain: GGCCGGCAUGGUCCCAGCCUCCUCGCUGGCGCCGGCUGGGCAACAUUCCGAGGGGACCGUCCCCUCGGUAAUGGCGAAUGGGACCCA

Variants of B1 are the subject of the data set. Kind of data set: self-cleavage, relative activity (ratio to wild type); higher = more cleavage; co-transcriptional.
For A42G G67U, the self-cleavage amounted to 0.565.

Consider G25U A78G, for which the self-cleavage stood at 0.185.

Take G59A U69G: the self-cleavage is 1.

As for G10C A16U, the self-cleavage came to 1.49.

Take C61U U79G: the self-cleavage came to 1.15.

For the variant A78C, the self-cleavage was determined as 0.164.

For G17C G76C, the self-cleavage was 0.499.

With A45U G80A, the self-cleavage is 0.205.

With G40A A51C, the self-cleavage is 0.984.

Take U20G A71C: the self-cleavage came to 0.

Consider U69G, for which the self-cleavage turned out to be 0.981.

As to G29C G67U, the self-cleavage is 0.0773.

For U37A U69G, the self-cleavage turned out to be 0.369.

Take C32G G35U: the self-cleavage came out at 0.0583.

As to A77G G80A, the self-cleavage turned out to be 0.242.

On to C4G A16C, for which the self-cleavage was found to be 0.0755.

As to A71C A77G, the self-cleavage worked out at 0.569.

Consider G53C C62G, for which the self-cleavage amounted to 1.01.

C4G G52U: the self-cleavage was 0.215.

On to C19U A83C, for which the self-cleavage was 0.217.

For the variant C63A G68C, the self-cleavage came out at 0.495.

Consider U46G A56U, for which the self-cleavage is 0.917.

With G2U A16U, the self-cleavage amounted to 0.0237.

A71C C84G: the self-cleavage came out at 0.415.

As for C13G A77U, the self-cleavage was found to be 0.119.

Turning to C30G U47C, the self-cleavage was 0.0941.

On to G74U C85G, for which the self-cleavage turned out to be 0.617.

Take G25U U72A: the self-cleavage came out at 0.0707.

Regarding U23A C41G, the self-cleavage came out at 0.849.

Regarding C13A C75U, the self-cleavage came to 0.163.

On to A42G C61U, for which the self-cleavage turned out to be 0.656.

As for G50U C58U, the self-cleavage was 0.909.

For C57G U60A, the self-cleavage came out at 0.987.

As for C57A A71U, the self-cleavage stood at 0.929.

For the variant C3A G40C, the self-cleavage is 0.0923.

Regarding U37A C41U, the self-cleavage is 0.403.

G39A C63G: the self-cleavage came to 0.352.

For the variant G35U G73A, the self-cleavage was found to be 0.0911.

For the variant G31U A56G, the self-cleavage is 0.386.

Regarding U20A A56U, the self-cleavage was determined as 0.0519.

As to G1U U60C, the self-cleavage came to 0.0811.

Regarding C4U G6A, the self-cleavage stood at 0.532.

For C18A G67A, the self-cleavage was 0.163.

Turning to U27G C41A, the self-cleavage turned out to be 0.969.

For the variant C7G U47A, the self-cleavage came out at 0.

As to C66A G68U, the self-cleavage amounted to 0.616.

With A45C A56C, the self-cleavage is 0.712.

Regarding U23A, the self-cleavage was determined as 0.985.

For C7U C13U, the self-cleavage is 0.332.

Turning to G6U A83U, the self-cleavage was found to be 0.256.

Regarding G25C G53U, the self-cleavage turned out to be 0.193.

Turning to A43U C57G, the self-cleavage was determined as 0.674.

Consider G25C C33U, for which the self-cleavage came out at 0.0773.

With G39A A77U, the self-cleavage came to 0.176.

Consider C44G A78U, for which the self-cleavage was found to be 0.19.

U37C C84U: the self-cleavage came to 0.655.

On to G38C C64A, for which the self-cleavage was 0.228.

On to C26G G53C, for which the self-cleavage worked out at 0.73.

Turning to A45G C62A, the self-cleavage was determined as 0.975.

In the case of G29A C62U, the self-cleavage amounted to 0.159.

For G38C G73A, the self-cleavage was 0.185.

G10A G38U: the self-cleavage was 0.0923.

On to G52C C63U, for which the self-cleavage was determined as 0.919.

On to G2U C44U, for which the self-cleavage turned out to be 0.

Regarding C13G G67A, the self-cleavage turned out to be 0.138.

On to G31U U79C, for which the self-cleavage amounted to 0.107.

As for G34A C36A, the self-cleavage is 0.0978.

Regarding G1A G25C, the self-cleavage amounted to 0.

Regarding C36G G59U, the self-cleavage came to 0.199.

On to G6A C63U, for which the self-cleavage was found to be 0.743.

As to A43G G52C, the self-cleavage turned out to be 0.796.

Regarding C36G G73A, the self-cleavage worked out at 0.0723.

Take U46A A83C: the self-cleavage stood at 0.323.

On to C22G G52U, for which the self-cleavage came out at 0.0314.

In the case of G25A G52A, the self-cleavage is 0.0863.

Take C26U U37C: the self-cleavage was found to be 1.34.

Regarding G67U A70C, the self-cleavage worked out at 0.987.

With C13G G34U, the self-cleavage turned out to be 0.136.

For C48G G74C, the self-cleavage was 0.0755.

With G5A A78G, the self-cleavage stood at 0.178.

In the case of U23A U65A, the self-cleavage was 0.778.

As to C21A A77U, the self-cleavage came out at 0.

With C4G C75A, the self-cleavage is 0.0692.

As to G5U U23C, the self-cleavage was 0.462.

Consider G1C G35C, for which the self-cleavage amounted to 0.

Take U37C G55C: the self-cleavage is 1.1.

Consider G6U C48A, for which the self-cleavage worked out at 0.542.

A8C A45G: the self-cleavage came to 0.615.

In the case of C21A G50C, the self-cleavage stood at 0.0639.

For G50A C75G, the self-cleavage came to 0.0852.

For the variant G6C A8G, the self-cleavage was found to be 0.332.

Consider U9C U12G, for which the self-cleavage was found to be 1.07.

For C30G C32U, the self-cleavage turned out to be 0.113.

Consider C18U G80A, for which the self-cleavage stood at 0.196.

As for G25A A70U, the self-cleavage is 0.17.

Take U20A U23C: the self-cleavage worked out at 0.

In the case of C21A A71C, the self-cleavage is 0.0692.

As to G5A G81U, the self-cleavage was 0.

For G11A A87U, the self-cleavage came to 0.495.

For the variant A77C G80A, the self-cleavage amounted to 0.0378.

With G10A A56G, the self-cleavage stood at 0.695.

C44A G81A: the self-cleavage came out at 0.125.

In the case of A45G G53A, the self-cleavage was 0.991.

As to G28C G76U, the self-cleavage came to 0.0378.

Take A16U U65G: the self-cleavage turned out to be 0.997.

Regarding C32G U60G, the self-cleavage is 0.196.

With G28U A71G, the self-cleavage was determined as 0.0554.

With U23A C33U, the self-cleavage turned out to be 1.05.

Take A51U G67A: the self-cleavage amounted to 0.78.

With G55A C57U, the self-cleavage came to 0.925.

In the case of G6A C21A, the self-cleavage is 0.0707.

With C4A U27G, the self-cleavage came to 0.225.

In the case of A16G U46C, the self-cleavage worked out at 0.293.

For G1A C49A, the self-cleavage turned out to be 0.0923.

Turning to C58A G80A, the self-cleavage came out at 0.544.

For the variant C49A G54U, the self-cleavage turned out to be 0.734.

Consider C44A C85U, for which the self-cleavage amounted to 0.727.

Regarding G5U C41G, the self-cleavage was found to be 0.111.

In the case of G2A A43C, the self-cleavage was determined as 0.0665.

G50C G68U: the self-cleavage came out at 0.597.

On to G50C G73A, for which the self-cleavage is 0.407.

C58G U69G: the self-cleavage was 1.17.

As to G38C U47A, the self-cleavage is 0.249.

In the case of C48U G68U, the self-cleavage came to 0.893.

In the case of G39U C58A, the self-cleavage turned out to be 0.665.

For G52A C58G, the self-cleavage is 0.974.

On to G11U C44U, for which the self-cleavage was 0.193.

Take U65C U69C: the self-cleavage amounted to 1.02.

Take C66G U69C: the self-cleavage is 0.898.

For A56U U65G, the self-cleavage was found to be 0.928.

Regarding A42C G55C, the self-cleavage was 0.243.

In the case of G55A A71U, the self-cleavage was 0.652.

For G55A A71G, the self-cleavage was determined as 1.1.

As for C19A C85A, the self-cleavage is 0.0963.

Take G5U A78C: the self-cleavage stood at 0.185.

For C63G, the self-cleavage was found to be 0.764.

Turning to U37C A45U, the self-cleavage amounted to 0.639.

For the variant A8G C44G, the self-cleavage came out at 0.499.

Turning to G6C C61A, the self-cleavage worked out at 0.161.

Take G17U C85U: the self-cleavage worked out at 0.614.

As for C19A G59A, the self-cleavage is 0.125.

For the variant A83U C86A, the self-cleavage turned out to be 0.708.

With A8C G35A, the self-cleavage was determined as 0.142.

Take A8U G74A: the self-cleavage amounted to 0.115.

As for C44U C84U, the self-cleavage was 0.516.

Consider C18G G76C, for which the self-cleavage stood at 0.147.

Turning to C62U A77C, the self-cleavage came out at 0.491.

Take C19G C84A: the self-cleavage is 0.0898.

On to G17A U37A, for which the self-cleavage came out at 0.0415.

On to A16U C57A, for which the self-cleavage turned out to be 1.17.

For the variant G68A G82A, the self-cleavage was determined as 0.287.

Consider C30U G34A, for which the self-cleavage amounted to 0.0875.

For G17U A77U, the self-cleavage was 0.104.

Consider C57A A83U, for which the self-cleavage is 0.554.

For the variant C4G C15G, the self-cleavage amounted to 0.308.

With C22G G68A, the self-cleavage is 0.132.

Regarding C21G C64A, the self-cleavage came out at 0.131.

Take U20G G35U: the self-cleavage is 0.

With U20G G35A, the self-cleavage was 0.107.

For A51C C84G, the self-cleavage was 0.536.

On to G5U G39C, for which the self-cleavage is 0.26.

As for U23A C32G, the self-cleavage came out at 0.253.

For the variant U9G G50A, the self-cleavage turned out to be 1.18.

As to G31C A56G, the self-cleavage is 0.166.

For the variant C48A A87U, the self-cleavage amounted to 1.03.

As for G34C U69A, the self-cleavage is 0.0739.

As for U23G G52U, the self-cleavage came to 0.585.
